From PMC3829318

B1: KORRIGAN1 (KOR1): N345Q (protein)
parent chain: MYGRDPWGGPLEINTADSATDDDRSRNLNDLDRAALSRPLDETQQSWLLGPTEQKKKKYVDLGCIIVSRKIFVWTVGTLVAAALLAGFITLIVKTVPRHHPKTPPPDNYTIALHKALKFFNAQKSGKLPKHNNVSWRGNSGLQDGKGETGSFYKDLVGGYYDAGDAIKFNFPMAYAMTMLSWSVIEYSAKYEAAGELTHVKELIKWGTDYFLKTFNSTADSIDDLVSQVGSGNTDDGNTDPNDHYCWMRPEDMDYKRPVTTCNGGCSDLAAEMAAALASASIVFKDNKEYSKKLVHGAKVVYQFGRTRRGRYSAGTAESSKFYNSSMYWDEFIWGGAWMYYATGNVTYLNLITQPTMAKHAGAFWGGPYYGVFSWDNKLAGAQLLLSRLRLFLSPGYPYEEILRTFHNQTSIVMCSYLPIFNKFNRTNGGLIELNHGAPQPLQYSVNAAFLATLYSDYLDAADTPGWYCGPNFYSTSVLRDFARSQIDYILGKNPRKMSYVVGFGTKYPRHVHHRGASIPKNKVKYNCKGGWKWRDSKKPNPNTIEGAMVAGPDKRDGYRDVRMNYNYTEPTLAGNAGLVAALVALSGEEEATGKIDKNTIFSAVPPLFPTPPPPPAPWKP
B2: KORRIGAN1 (KOR1): N324Q (protein)
parent chain: B1 parent chain
B3: KORRIGAN1 (KOR1): N408Q (protein)
parent chain: B1 parent chain
B4: KORRIGAN1 (KOR1): N567Q (protein)
parent chain: B1 parent chain
B5: KORRIGAN1 (KOR1): N425Q (protein)
parent chain: B1 parent chain
B6: KORRIGAN1 (KOR1): N216Q (protein)
parent chain: B1 parent chain
B7: KORRIGAN1 (KOR1): kifunensine (rKOR1 KIF) (protein)
parent chain: B1 parent chain
B8: KORRIGAN1 (KOR1): N324Q/N345Q (protein)
parent chain: B1 parent chain
B9: KORRIGAN1 (KOR1): N216Q/N324Q/N345Q (protein)
parent chain: B1 parent chain
B10: KORRIGAN1 (KOR1): kifunensine (rKOR1 KIF) + Endo H (protein)
parent chain: B1 parent chain
B11: KORRIGAN1 (KOR1): N324Q + Endo H (protein)
parent chain: B1 parent chain
B12: KORRIGAN1 (KOR1): N345Q + Endo H (protein)
parent chain: B1 parent chain
B13: KORRIGAN1 (KOR1): N216Q + Endo H (protein)
parent chain: B1 parent chain
B14: KORRIGAN1 (KOR1): N408Q + Endo H (protein)
parent chain: B1 parent chain
B15: KORRIGAN1 (KOR1): N425Q + Endo H (protein)
parent chain: B1 parent chain
B16: KORRIGAN1 (KOR1): Endo H (protein)
parent chain: B1 parent chain
B17: KORRIGAN1 (KOR1): PNGase F (protein)
parent chain: B1 parent chain

Assay: activity after preincubation at 30 °C
Conditions: glycan lost; control: rKOR1 WT

Row | Protein | stability_or_folding, other: residual activity after 120 min
1 | B1 | no change, at least 90 vs at least 90
2 | B2 | no change, at least 90 vs at least 90
3 | B3 | no change, at least 90 vs at least 90
4 | B4 | no change, at least 90 vs at least 90
5 | B5 | decreases, 69 vs at least 90
6 | B6 | no change, at least 90 vs at least 90

Assay: anti-KOR1 immunoblot of Sf21 culture medium
Conditions: glycan changed form; control: rKOR1 WT

Row | Protein | expression_or_secretion
7 | B7 | no change

Same assay, conditions: glycan lost; control: rKOR1 WT

Row | Protein | expression_or_secretion
8 | B1 | no change
9 | B2 | no change
10 | B3 | no change
11 | B4 | decreases
12 | B5 | no change
13 | B6 | no change
14 | B8 | decreases

Assay: Golgi processing of remaining glycopeptides, LC-ESI-MS, N. benthamiana
Conditions: glycan lost; control: wild-type KOR1-Fc-GFP

Row | Protein | localisation_or_trafficking
15 | B1 | no change
16 | B2 | no change
17 | B3 | no change
18 | B4 | no change
19 | B5 | no change
20 | B6 | no change
21 | B8 | no change
22 | B9 | no change

Assay: CMC hydrolysis after non-denaturing Endo H
Conditions: glycan changed form; control: Endo H-treated rKOR1 WT

Row | Protein | enzymatic_activity
23 | B10 | decreases

Same assay, conditions: glycan lost; control: Endo H-digested rKOR1 WT

Row | Protein | enzymatic_activity
24 | B11 | no change
25 | B12 | no change
26 | B13 | no change
27 | B14 | no change
28 | B15 | no change

Assay: CMC hydrolysis after non-denaturing deglycosylation
Conditions: glycan lost; control: untreated rKOR1 WT

Row | Protein | enzymatic_activity, percent_of_wt
29 | B16 | decreases, loss of 20–30% vs 100
30 | B17 | decreases, ∼50 vs 100

Assay: transient expression in N. benthamiana leaves
Conditions: glycan lost; control: wild-type KOR1-Fc-GFP

Row | Protein | expression_or_secretion
31 | B8 | no change

Assay: (carboxymethyl)cellulose 4M hydrolysis, reducing sugar assay
Conditions: glycan changed form; control: rKOR1 WT

Row | Protein | enzymatic_activity, other: specific activity
32 | B7 | no change, 402 ± 40 vs 374 ± 18

Same assay, conditions: glycan lost; control: rKOR1 WT

Row | Protein | enzymatic_activity, other: specific activity
33 | B1 | decreases, 271 ± 25 vs 374 ± 18
34 | B2 | decreases, 307 ± 8 vs 374 ± 18
35 | B3 | no change, 379 ± 18 vs 374 ± 18
36 | B5 | no change, 394 ± 34 vs 374 ± 18
37 | B6 | decreases, 244 ± 25 vs 374 ± 18
